Tests used:
Test in all cases: Biacore, steady-state affinity fit
activin A = molecular target: T1, activin A (UniProt P08476 311-426)
T1 construct: also called ActA
T1 sequence (looked up): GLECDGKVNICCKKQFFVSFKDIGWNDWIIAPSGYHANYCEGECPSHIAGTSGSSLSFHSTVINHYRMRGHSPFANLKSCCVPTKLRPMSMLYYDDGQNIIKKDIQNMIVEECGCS
Experimental: (§1) The affinity of ActRIIB variants and other ActRIIB-hFc proteins for several ligands was evaluated in vitro with a Biacore™ instrument. Kd values were obtained by steady-state affinity fit due to the very rapid association and dissociation of the complex, which prevented accurate determination of kₒₙ and koff.

GDF11 = molecular target: T2, GDF11 (UniProt O95390 299-407)
T2 sequence (looked up): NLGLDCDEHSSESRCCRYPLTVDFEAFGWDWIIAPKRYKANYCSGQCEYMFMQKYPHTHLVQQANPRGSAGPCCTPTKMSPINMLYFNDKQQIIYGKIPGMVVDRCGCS
Experimental: as §1

activin B = molecular target: T3, activin B (UniProt P09529 293-407)
T3 sequence (looked up): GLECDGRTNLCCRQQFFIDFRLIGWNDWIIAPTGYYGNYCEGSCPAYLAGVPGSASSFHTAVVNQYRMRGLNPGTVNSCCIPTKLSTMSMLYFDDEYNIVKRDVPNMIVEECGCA
Experimental: as §1

B1: ActRIIB(L79D 25-131)-hFc (Fc fusion)
chain: ETRECIYYNANWELERTNQSGLERCEGEQDKRLHCYASWRNSSGTIELVKKGCWDDDFNCYDRQECVATEENPQVYFCCCEGNFCNERFTHLPEAGGPEVTYEPPPTGGGTHTCPPCPAPELLGGPSVFLFPPKPKDTLMISRTPRVTCVVVDVSHEDPEVKFNWYVDGVEVHNAKTKPREEQYNSTYRVVSVLTVLHQDWLNGKEYKCKVSNKALPAPIEKTISKAKGQPREPQVYTLPPSREEMTKNQVSLTCLVKGFYPSDIAVEWESNGQPENNYKTTPPVLDSDGSFFLYSKLTVDKSRWQQGNVFSCSVMHEALHNHYTQKSLSLSPGK
notes: Cell purified form without leader
B1 was tested, and the Kd (activin A) was 22.9 nM, the Kd (GDF11) was 0.074 nM and the Kd (activin B) was 0.621 nM.

From patent US20240366722A1 (ACCELERON PHARMA, published 2024)
